Reference: IntAct's records for PubMed 7664803

B1: Proto-oncogene tyrosine-protein kinase LCK (Mus musculus), P06240 (parent)
chain: MGCVCSSNPEDDWMENIDVCENCHYPIVPLDSKISLPIRNGSEVRDPLVTYEGSLPPASPLQDNLVIALHSYEPSHDGDLGFEKGEQLRILEQSGEWWKAQSLTTGQEGFIPFNFVAKANSLEPEPWFFKNLSRKDAERQLLAPGNTHGSFLIRESESTAGSFSLSVRDFDQNQGEVVKHYKIRNLDNGGFYISPRITFPGLHDLVRHYTNASDGLCTKLSRPCQTQKPQKPWWEDEWEVPRETLKLVERLGAGQFGEVWMGYYNGHTKVAVKSLKQGSMSPDAFLAEANLMKQLQHPRLVRLYAVVTQEPIYIITEYMENGSLVDFLKTPSGIKLNVNKLLDMAAQIAEGMAFIEEQNYIHRDLRAANILVSDTLSCKIADFGLARLIEDNEYTAREGAKFPIKWTAPEAINYGTFTIKSDVWSFGILLTEIVTHGRIPYPGMTNPEVIQNLERGYRMVRPDNCPEELYHLMMLCWKERPEDRPTFDYLRSVLDDFFTATEGQYQPQP

What was measured:
[1] = variants of: B1; conditions: with cd4_mouse Cd4, P06332
[2] = variants of: B1; conditions: with cd8a_mouse Cd8a

Sequence of cd4_mouse Cd4, P06332 (P06332 whole entry): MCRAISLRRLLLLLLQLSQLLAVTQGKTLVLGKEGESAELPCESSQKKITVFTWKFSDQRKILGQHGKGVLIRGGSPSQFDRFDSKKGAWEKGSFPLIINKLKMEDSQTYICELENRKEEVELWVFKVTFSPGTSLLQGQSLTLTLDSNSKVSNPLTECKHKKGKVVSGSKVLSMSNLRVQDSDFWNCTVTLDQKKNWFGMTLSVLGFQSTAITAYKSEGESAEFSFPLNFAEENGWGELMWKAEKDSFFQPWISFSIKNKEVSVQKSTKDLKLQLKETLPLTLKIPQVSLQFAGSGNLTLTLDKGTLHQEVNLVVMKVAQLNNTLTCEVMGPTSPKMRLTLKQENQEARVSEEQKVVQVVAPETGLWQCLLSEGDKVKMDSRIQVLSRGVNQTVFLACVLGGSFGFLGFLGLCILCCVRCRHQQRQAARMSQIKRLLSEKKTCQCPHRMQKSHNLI

effect of a mutation on the interaction [1]	effect of a mutation on the interaction [2]	Variant
decreasing interaction	decreasing interaction	C20A
decreasing interaction	decreasing interaction	C23A
